Laboratory results reported in patent US20160008398A1.

How the values were obtained:
[1] = biological target: 4-1BB (human) (UniProt Q07011)
[2] = biological target: CMV pp65 presented by HLA-A*0201

Substance | Granzyme B density near the immunological synapse (fold reduction) [1] | T cell expansion after weekly restimulation with HLA-A*0201^+ pp65-transduced Caco-2 tumor cells [2]
dsRed-monomer-4-1 BBL fusion protein (from UniProt P41273) (ligand) | 2.02 | –
CMV pp65-specific T lymphocytes (cells without a defined receptor) | – | 209 fold
